In PMC12271210 one finds Kd, koff and kon data, which are given here for 3 substances.

The target of assay [1] is KPNB1. Put plainly: BLI; APS probe with immobilised KPNB1 (10 μg/ml, to saturation), N protein in solution (gradient 0.61–2.07 μM or 4.17–8.89 μM); 30°C, PBS + 0.2% BSA; 1:1 binding model; ForteBio Octet. On the technique in general: Biolayer interferometry detects binding as a change in optical thickness at a sensor tip.
Assay [2] deals with HP-PRRSV N protein (porcine reproductive and respiratory syndrome virus (HP-PRRSV)). Put plainly: BLI; SA probe with immobilised N protein (10 μg/ml, immobilization height 2.2 nm), KPNA1 in solution (gradient 1.47–4.97 μM or 0.87–9.95 μM); 30°C, PBS + 0.2% BSA; 1:1 binding model; ForteBio Octet.
In assay [3] the target is classic PRRSV N protein (porcine reproductive and respiratory syndrome virus (classic PRRSV)). The assay is described as above.

The term Kd denotes the concentration at which binding is half-saturated. As a reminder, the koff is the rate constant with which the complex falls apart. One may read the kon as the second-order rate constant of association. In the case of “classic PRRSV N protein (natural protein)”, in assay [1], the Kd was 293 nM, the koff came out at 0.00179 s⁻¹ and the kon stood at 6110 M⁻¹ s⁻¹.

As for KPNA1 (receptor), in assay [2], the equilibrium dissociation constant (Kd) is 910 nM, the koff came out at 0.000446 s⁻¹ and the on-rate constant (kon) was determined as 490 M⁻¹ s⁻¹. In assay [3], the Kd was 304 nM, the koff was found to be 0.000619 s⁻¹ and the kon was determined as 2030 M⁻¹ s⁻¹.

As for HP-PRRSV N protein (natural protein), in assay [1], the Kd came to 2130 nM, the koff was determined as 0.00737 s⁻¹ and the kon came to 3450 M⁻¹ s⁻¹.
